Measurements reported in PMC12851022, “Targeting the Spliceosomal Protein USP39 Through Allosteric Ligands and PROTAC‐Induced Degradation” (Angewandte Chemie (International Ed. in English), 2025).

Tests used:
VHL_WT-EGFP = VHL_WT-EGFP (UniProt P40337)
VHL_m (Δ91–121) = VHL_m (Δ91–121) (UniProt P40337)
VHL_m (Δ91–121), sequence (P40337 other isoform, or with tags, fused parts or gaps mutant): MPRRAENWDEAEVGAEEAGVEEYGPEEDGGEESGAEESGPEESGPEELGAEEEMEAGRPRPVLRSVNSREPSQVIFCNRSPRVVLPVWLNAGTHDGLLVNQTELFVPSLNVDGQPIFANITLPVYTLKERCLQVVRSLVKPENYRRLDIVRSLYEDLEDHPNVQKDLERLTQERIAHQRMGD

VHL_WT-EGFP, sequence (P40337 whole entry): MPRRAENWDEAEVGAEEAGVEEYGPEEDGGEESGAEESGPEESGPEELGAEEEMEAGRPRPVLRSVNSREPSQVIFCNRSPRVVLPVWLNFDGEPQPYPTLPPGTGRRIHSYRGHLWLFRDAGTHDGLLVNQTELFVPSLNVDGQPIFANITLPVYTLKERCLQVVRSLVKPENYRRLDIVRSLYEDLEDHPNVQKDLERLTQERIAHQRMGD

B1: USP39-OFP (natural protein)
chain: MSGRSKRESRGSTRGKRESESRGSSGRVKRERDREREPEAASSRGSPVRVKREFEPASAREAPASVVPFVRVKREREVDEDSEPEREVRAKNGRVDSEDRRSRHCPYLDTINRSVLDFDFEKLCSISLSHINAYACLVCGKYFQGRGLKSHAYIHSVQFSHHVFLNLHTLKFYCLPDNYEIIDSSLEDITYVLKPTFTKQQIANLDKQAKLSRAYDGTTYLPGIVGLNNIKANDYANAVLQALSNVPPLRNYFLEEDNYKNIKRPPGDIMFLLVQRFGELMRKLWNPRNFKAHVSPHEMLQAVVLCSKKTFQITKQGDGVDFLSWFLNALHSALGGTKKKKKTIVTDVFQGSMRIFTKKLPHPDLPAEEKEQLLHNDEYQETMVESTFMYLTLDLPTAPLYKDEKEQLIIPQVPLFNILAKFNGITEKEYKTYKENFLKRFQLTKLPPYLIFCIKRFTKNNFFVEKNPTIVNFPITNVDLREYLSEEVQAVHKNTTYDLIANIVHDGKPSEGSYRIHVLHHGTGKWYELQDLQVTDILPQMITLSEAYIQIWKRRDNDETNQQGA
VHL_WT-EGFP
  DC50 of USP39 PROTAC V1-induced degradation of USP39-OFP, fluorescence assay in HEK293T cells co-expressing USP39 OFP and VHL WT-EGFP: 1 nM
VHL_m (Δ91–121)
  fold reduction of USP39 PROTAC V1-induced degradation of USP39-OFP against cells with VHL WT-EGFP, fluorescence assay in HEK293T cells expressing VHL m: > 80 fold
